Assay: soluble fraction after stress (log2 fold change); higher = more stays soluble; pooled small domains, quantitative proteomics
Settings: stress: pH 4
Summary of the method: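 Pooled custom libraries of small protein domains were subjected to pH 4 and measured by high-throughput quantitative proteomics. The log2 fold change in soluble amount per domain is reported, higher values meaning more remained soluble. This is used as a measure of aggregation propensity.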

HMRDLLPHFQRELQFLQTHRNEFAAAYPELGGRLATASDLLDDPHVERMVQSFALLAARVHKRLDDDF
soluble fraction (log2): -0.143

HMAATSTGFPGVEVRGNSIRVFFMYKRDRHAHTLPLEPTRNNIKHADQLRSAALFALRNGTYNEADFFPHS
soluble fraction (log2): -0.509

HMGRRDLSWQPAAGGVSIDGLKAGEAWTLFGLNGRILKQGYAPEGQMSLAVNAGLFVLRGAESGVIRIAVA
soluble fraction (log2): -0.255

HMNVNSMIGKEGRVIEDIDNFNETGRIIVDGMEWTARAVNEQSITSGQKVVIREIQGVKAMVVPM
soluble fraction (log2): -0.299

HMGTAGLSPWHKIAVLMIALGPEGASELMRHFGEDEVEQVVQAIADLKNVPSELQDAVLLEMEGALQEG
soluble fraction (log2): -0.796

HMNFTKHPENPNFVVYRFTDPERANSFRAELIANNISFEEDTEKKKQLIYTLFAIHTKYYNQSMQINIK
soluble fraction (log2): -0.0767

HMSSFIEAIKQSGTDSLDVIMKNGRVYRYVGIDADRLGYLLEPHQQKLSLEESIGRFYIDYIKGIYEAIE
soluble fraction (log2): -1.05

HMLIADADSLRKQIETVLANAPNEVAAYRGGKETLMGWFVGQIMRATGGKADPKLTREILAELLQ
soluble fraction (log2): -0.126

HMVQVDNELTEFSVQSITRGIDALGEVTIRVTAPDGGVYTGRGADNDIIVSSTKAYLNALNRLLNDK
soluble fraction (log2): -0.552

HMKPSVEIKVNGGTGAGVVKKGGSITVTANEPAEGKVFTGWQDESGKIVSTQKEYTFTVAEGTTLTAVYED
soluble fraction (log2): -0.417

HMLPDDDMLLNILTKLLIDKQFVINSHEIFDFIIKRANRSYEEMFILVNKLDQLSLEKKRQLTIPLIKEI
soluble fraction (log2): -1.22

HMGMSENIDKVAGGIPYKVEGNKAIINEPLDDATKERLMGKAKEHGYHAAPNQAGGITITLK
soluble fraction (log2): 0.0104

HMGLDPVFKKWVDDNPWYTENRVLRALTHDYAEELKQTNPQLVGVEFLDQVKKRVQADHPEFFQ
soluble fraction (log2): -0.552

HMSVTPLLDATEKDKTKYRDLWLVAVVKNGVNYARKYKFGYVYAWLYRHDRDWLLQVNNQHKIPNIT
soluble fraction (log2): -0.107

HMHRAKRTKAQTQSSLESIEGIGPKTRKQLLVHFGGLAEVKAASVSELQKVKGISLDKAQKIYDFFHGS
soluble fraction (log2): 0.119

HMLEQISDPEVLSKLADEVLSQQEKMVMDYRKGKTAAFQGLMGQMMKKTKGKGNPAKIQEILAQKL
soluble fraction (log2): -0.192

HMTGLSAQILAKLRDNHGVLPVSDKSDPAVISNLFGVSKGNFKKAIGGLYKEGQIVIHADRIEL
soluble fraction (log2): 0.302

HMNEDYFTIAGYASLRGVNIDTSKANMLGRKATKLSREYGYDIGKVTDTRFGKVNSYHLDILKSIFEF
soluble fraction (log2): -0.646

HMNTLRFPEGTPEKDRMSIILASYNSGIGHVNDARRLARLNGEDPNSWEVVARYLQLKAQPEYYESEAVK
soluble fraction (log2): -0.548

HMEHNDPEVERTMFQGLEALKLQLFEKAFGHFSLLIKLAPDYAEAWNKRATVLYLMGRFKESESDVMRTLE
soluble fraction (log2): -0.0178

HMTPKVDLTVAEDGSASAVIAGLRVEIDAAGKVTAVAPADGTTDLSSVAPEAVKEAMDNALAAYTASKG
soluble fraction (log2): 0.167

HMRPAAELGLPHAPKHFIQYLTEDDRPQVLKDVDYEGGMGVSIGRLREDSIFDWKFVGLAHNTL
soluble fraction (log2): 0.0686

HMLLTHPKRVFTYELIMELVWNEDYTFYSKKAVSNHMSNLRKKLKVTPDALDYIKNIVGVGYKFEA
soluble fraction (log2): -0.0812

HMVAMLDASYRGVMQTISTLLAQGNTERAYDEAVNARGQMSKQQWNNLANLIWERTGQKIDSGVSYK
soluble fraction (log2): -0.00781

HMQTRIDISDAVLQWVVRKTQFAALPPKAAAHLTKWVRGEKKPTFNQLEEVSKATGIPLGYFFLQQPPHE
soluble fraction (log2): -0.561

HMNLLGDNIRKLRLEKGLGLNEVARLANITGGYLSSIENNKRTNVGTEILESIAKAIGVSVSDFYL
soluble fraction (log2): -0.0496

HMSGYSTLFTRMSREDAQAVVSLLQDDGIEYRYNDDTGTVQVPSATVDQTRAKLVSAGYPRS
soluble fraction (log2): -0.303

HMSTPERQEVLDILKRQGEMTPLQIAGQISRTSKSVSNILSKLKREGFVANGAKYGSWVSTES
soluble fraction (log2): 0.0778

HMGSKEQELVILNNILERQLQAINLQKSAAGPMVNLRNVHNTLTKLVEAAGLKNVETYFTDPVIGAAQ
soluble fraction (log2): -0.543

HMKLVELVGSPKQIAWAEDIRKNMISYLSALVRKYEAENRPARAEKRAKDMEILSNIKEASWFIENRS
soluble fraction (log2): 0.155

HMRSNIYTEEKLWTVLQDFFQENRYLTISLMRMKFGLSRHMAQKWIDHFIAKGLLVKDGTPRSPIYFLND
soluble fraction (log2): -0.538

HMRLDVALRGVLLDGDPTQSRAFVLVSGTTSTYRLGETVQSAELVAINADTITLRTETGLHVIGFDGLI
soluble fraction (log2): -2.11

HMNQGKLIEMLQEMKEIAHSQNNYLTKNEIANYLGDTVLSKEQLQAVYHYLGENHIEVEGYVYIP
soluble fraction (log2): -0.51

HMASITLDQAKEIALTHAGQTADAVWFEKAEQDYDDGILVYELEFAAKGTEYEYEIDAQTGAIREYKWDD
soluble fraction (log2): 0.0206

HMKDHLRFEILSFAGDLRNGVVKTRQEFETIFAFYDKYEEIITALKVHNGYVDSEFDFIKEKFKELKSK
soluble fraction (log2): 0.194

HMSFNLSETKKLILEEIQKGVSSVTQIAATAGISKGMTYNHLRELKLMGYIADGDSGYVITDAGKIAS
soluble fraction (log2): -0.323

HMKVNIGDQVYNQMKDQIMSGVWVPGEKIPSENQLMEVFGVSRGTVRQAIQKLSAVGLLETRRGEGSYVGQ
soluble fraction (log2): -0.0128

HMTSVMAWRLITPIPQHGIIRSSQVQLQKHAPNSLKFLDVDSSPVGKQVKHGIAAGHWLSKDDFTE
soluble fraction (log2): ≥ 0.43

HMYVYEPGEFAVRGSILDVYSYASEFPYRIDFFGDDVESIRTFEVQTQLSKEAKDRVSIVPDTEQ
soluble fraction (log2): -0.585

HMGNTMIVILKHEARQEQIDRLKQFLLGMGLRIDESKGENSTILGLVGDTTRVDADLISSLDAVEAVRRV
soluble fraction (log2): -0.626

HMSHGSIYFSGKTGLKGSVDINGTVNSINKKIFLKPGNYNFLIKADGYKNLKGSFQISKGDKKFVELVLIP
soluble fraction (log2): -0.0804

HMGVDMAPESIVGKKGVAATELRPAGKVEIHGQVYDAVSVGMFIKRGTGVKVVRYEAAQIYVEPE
soluble fraction (log2): -0.112

HMEKGLQYRRTDRAIMNAFIKLVNQGSFEKLTVQEILDEALVSRNTFYAHYRDIYDLMDALSN
soluble fraction (log2): -1.37

HMETVPMIDLRGMTQEQAEKAIVGLGLTVGTVDHSSSDMPAGQVWFQSVEPKDEVAPGTKVNIIISTGS
soluble fraction (log2): -0.128

HMSSEPYISLPRGAAHDAYPLSTKAVAAQLGMSEVWLANLRSKGKGPRYVRVGTRVFYSPEDVAQWRRAT
soluble fraction (log2): ≥ 0.43

HMTQPAEINRLVEQMGSSDYKSRQEAYERLHQMGPGILDLIYPYRNHADPEIQTRVRELILSYRW
soluble fraction (log2): -0.547

HMAITLEQFLSVNPHIRNNLYGNAVELVKDKDFSVLSDKLKASSKWANEPSLYKILSHYDEIIS
soluble fraction (log2): 0.207

HMEVPTGNHIRRWRKSLDITQVKLSSLSGVAQSIIAKIENETVDPRVSTLRKLVEALSRFENP
soluble fraction (log2): -0.358

HMEYNLTLEELNRDLYIRGEIWNVGDVVKTTDGDEGTIIRKGTNYVVFEDLRRVWLHNLEEVK
soluble fraction (log2): -1.64

HMIPSGISEHPISKLPLSMSIIHRLELAGIKTIGDITGENFSRLQEIPRIGKVTAKRILEAIQSYSEQLP
soluble fraction (log2): -0.273

HMRPKAIFVDVDDTLVRSVGQTRIPMPAVIAHIRRLHDAGHQLYLWSSGGADYARASAEELGIGQYFQAFL
soluble fraction (log2): -0.32

HMSEEAMVSNFRQQEILELARKDGKVTVDGLAELYDVTVQTIRRDLSDLADSGRLKRVHGGAVVPS
soluble fraction (log2): -0.465

HMEDKQRRMGELVALLNRAAYAYYTKDEPIMADVQYDRLYDELLSLEKETGVQMADSPTHRV
soluble fraction (log2): -0.871

HMSAATGIINTDNVNIRSGPATTYDAVGRLNQGSSVEILSSRNDWYQIQANSLKGWVRNDLLNVQK
soluble fraction (log2): 0.0683

HMAEDDAVQKAVREAVAESADAVADYKAGSERALNFIVGVVMKKTRGKASPGEVHRLVKAEVEK
soluble fraction (log2): 0.143

HMRQYTPEQLETAVLVLEEVRQGRRLDRALRSHPMPDGRLIAKHVLVAAYRKLVAEGTWKEDPEFLSRIRM
soluble fraction (log2): 0.116

HMSHFSERLKSLRQQSSITQAKLADDLNVTKSLISMYESGQRLPSFEMLETIADYFNVPLSSLV
soluble fraction (log2): -0.51

HMKTDFEIDITVKASSLRVVASPGGDELVGTVTRGDRVTQLATPKDGWILIKMTDGRLGYVPESLLLFP
soluble fraction (log2): -0.89

HMLETHRRRQIILSLLRESGMLDVDEVAARLVVSPNTIRNDFNALAAEGLLRRIRGGATLAEP
soluble fraction (log2): -0.171

HMNTLPASVQPKKGRLYAVIQTKENGKSKPVWRSLGLPEGSNKSKVNKAFREVVKQFEEEYAERLAR
soluble fraction (log2): 0.22

HMTLFDESGYTARELEIIREVANGLSNKEIADKLFLSEGTVKNYITGILAKENLSHRTALAVYYLTGRK
soluble fraction (log2): -0.558

HMSLPDREVVLETSSDSYYHFKTDHFQRQITYSAVRNAPVRLVTISAERAFEVISLNRRGERPEHLE
soluble fraction (log2): -1.77

HMNGNLRAQVLELMGRADYEPLNKSELSRKLDLQGSDRSSLRILMDELERDHSVVRLKKGRFALKVV
soluble fraction (log2): 0.0349

HMDRDPAEAGYDDGYLSGNTDGMNNDERATYDESSQYPTPDERQSYAAAYRRGYAAGFADGRKQAV
soluble fraction (log2): -0.138

HMGNLIIFYDEGIGSGPLMKAVNDSGVSLVYEYKNLHGIAIRPSAKTNIQDAIAYFQKVNGVLSVEQ
soluble fraction (log2): -0.65

HMSFRYLHVKRQLMSLIGTMNAHERLPSRTDLSETFQVARTTIERAISELIGEGWLYARDGSGTYVAER
soluble fraction (log2): -0.919

HMDRTLTYTVSIEESDLRADQFLSRRGFSSHLLTRLRKNMEHLLINGTPSRTNTHLHEGDILTVHIVEE
soluble fraction (log2): -0.249

HMQTPPGRYRHYKGGLYEVIATARHSETLEPMTVYRALYGEQGLWVRPAAMFAEDITLEGVRQPRFARI
soluble fraction (log2): -1.27

HMPEMHIYTKEGKIHITHIDENEEIKIYNPLGQIIYTGSPQDIPVLEGKGLYIIYIGKSAVEVLES
soluble fraction (log2): -0.624

HMRNLFWTEAQNAQNELNAMRINALTQSIRRIEPNFRGIPSLRDPNRPIPNEEVRDYENYLNRILP
soluble fraction (log2): 0.126

HMAVLEGPAGKLGIVRFEANRSFTGMGHERFSSADQAFGTKPAAVVASRLFATGQVAGVHVYGNIITVELA
soluble fraction (log2): ≥ 0.43

HMRIETLESLANRLAYKAYRTGRKVELEPMNPFERRVIHTALQNSKYATTESEGEDMNRHIVIVPKEGG
soluble fraction (log2): 0.247

HMQNSLKAFRVKRGLTTSALSRLTNGEFSTSRISNYETGVRALTIDAAKKLAPHLGASPAQLLNL
soluble fraction (log2): 0.371

HMADLTIDGVEYTKVSPTGTLTLEKVYTKNVTPADGQYYIQTGTKTVRVATDAEVAVIKAGGF
soluble fraction (log2): 0.247

HMSYQSYDKVVGDTFFEANLKAESKFGKGNFEIISTRRVKHPIYLGFGHKELVELTIGIHDP
soluble fraction (log2): -0.302

HMRGQGRILAMLKIQPEIATKDLAYLLGIRQQSLNELLKKLEKNSYVERRPSEKDRRVMVVHLTEKGKE
soluble fraction (log2): 0.0202

Source: the domain aggregation screens of Martell et al. (2025)
